By pKd is commonly meant the Kd on a negative log10 scale, so that one unit is a factor of ten.

The source of these data is PMC7190642.

pKd: −log10 of the molar value.

Assay [1] deals with GST-MDM2-350–C-S425D (human) (UniProt Q00987). The assay is described as follows: SPR; GST-tagged MDM2 variants captured on a CM-5 chip with coupled anti-GST antibody; serial dilution of UbcH5B–Ub as analyte; 25 °C; 25 mM Tris-HCl pH 7.6, 150 mM NaCl, 0.1 mg/ml BSA, 1 mM DTT, 0.005% Tween-20; Biacore T200; GST alone subtracted. In general terms: SPR reads the build-up and loss of mass on a sensor chip optically.

Assay [2] deals with GST-MDM2-350–C-6D/His-MDMX-428–C heterodimer (UniProt Q00987). Described as above.
For assay [3], the target named is GST-MDM2-419–C-S429E/His-MDMX-418–C heterodimer (UniProt Q00987). The assay is described as above.
Assay [4] concerns the target GST-MDM2-350–C/His-MDMX-428–C heterodimer (UniProt Q00987). The assay is described as above.
Assay [5] addresses GST-MDM2-419–C-S429D (human) (UniProt Q00987). The assay is described as above.
In assay [6] the target is GST-MDM2-350–C-S386D (human) (UniProt Q00987). Described as above.
A further assay concerns the target GST-MDM2-419–C (human) (UniProt Q00987). The assay is described as above.
The target in assay [7] is GST-cat MDM2-422–C (Felis catus (cat)) (UniProt Q7YRZ8). The description is as above.
Assay [8] concerns the target GST-MDM2-350–C-6D (human) (UniProt Q00987). The assay is described as above.
The target in assay [9] is GST-MDM2-419–C-pS429 (human) (UniProt Q00987). The assay is described as above.
Assay [10] has as its target GST-MDM2-350–C-S429D (human) (UniProt Q00987). The description is as above.
Assay [11] concerns the target GST-MDM2-419–C/His-MDMX-418–C heterodimer (UniProt Q00987). The description is as above.
Assay [12] has as its target GST-MDM2-350–C-T419D (human) (UniProt Q00987). The description is as above.
Assay [13] addresses GST-MDM2-419–C-S429E (human) (UniProt Q00987). The assay is described as above.
Assay [14] addresses GST-MDM2-350–C-S395D (human) (UniProt Q00987). Described as above.
Assay [15] has as its target GST-cat MDM2-422–C-S429E (Felis catus (cat)) (UniProt Q7YRZ8). The description is as above.
Assay [16] deals with GST-MDM2-350–C-S407D (human) (UniProt Q00987). The description is as above.
Assay [17] concerns the target GST-MDM2-419–C-S429E (human) (UniProt Q00987).

Regarding “UbcH5B S22R, C85K–Ub (stably conjugated E2–ubiquitin) (from UniProt P62837 1-147; P0CG47 1-76) (complex)”, the pKd in [1] is 4.87; in assay [2], 4.53; in [3], 4.75; in assay [4] it was 4.44; in assay [5], 5.15; in [6], 4.86. The negative-log Kd (pKd) was 4.85 with GST-MDM2-419–C (human); 4.77 in [7]; 5.17 in assay [8]; 5.29 in [9]; 5.11 in [10]; 4.63 in assay [11]. Also, the pKd in [12] is 4.89; in [13], 5.19; in assay [14], 4.86; in assay [15] it was 5.17; in assay [16], 4.86. Further, the rate of autoubiquitination of the MDM2 homodimer over time, S429E against WT in [17] came out at 1.6 fold.
